From article PMC7065273 (Molecular cell, 2019)

Biological target: His6-FLAG-tagged U2AF2 (amino acids 367-475), purified from E. coli (UniProt P26368 367-475)
Test: co-IP

His6-FLAG-tagged U2AF2 (amino acids 367-475), purified from E. coli, sequence (P26368 367-475): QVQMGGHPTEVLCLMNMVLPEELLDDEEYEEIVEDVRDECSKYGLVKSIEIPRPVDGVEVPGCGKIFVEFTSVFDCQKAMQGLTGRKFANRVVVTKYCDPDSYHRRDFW

- binding result: binds
B1: GST-tagged SUGP1 (amino acids 366-401), purified from E. coli (domain or fragment, UniProt Q8IWZ8 366-401, looked up)
chain: APAAPGKPASAATVKRKRKSRWGPEEDKVELPPAEL
